The source of these data is patent US20250339531A1, “DUX4 POLYPEPTIDES AND NUCLEIC ACIDS FOR TREATING INFLAMMATORY AND AUTOIMMUNE CONDITIONS” (Fred Hutchinson Cancer Center, priority 2021, published 2025).

For this test, the system named is proteins that co-immunoprecipitated with DUX4-CTD constructs expressed in MB135 myoblasts. The experiment in a line: LC-MS of proteins co-immunoprecipitated with DUX4-CTD (Table 1) and western validation. Format: binding, human. More on the design: key to 4. mL1dL2 + Dox + IFNG / 4. + IFNG mix / 4. longCTD + Dox + IFNG / 3. + IFNg + Dox longCTD / 3. + Dox longCTD / 3. + IFNG longCTD: peptide-spectrum matches (PSMs) per protein. As to conditions: for 4. longCTD + Dox + IFNG: LC-MS counts of the listed protein co-immunoprecipitated with DUX4-CTD bait longCTD, experiment 4, Dox + IFNG; for 3. + IFNg + Dox longCTD: experiment 3, IFNg + Dox; for SUM of PSMS: sum over all samples; for 3. + Dox longCTD: experiment 3, Dox only. An outline of the steps: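 Two independent experiments compared uninduced, doxycycline and doxycycline+IFNG MB135iDUX4-CTD (plus MB135iDUX4mL1dL2) myoblasts. Anti-FLAG pulldowns (3 h, 4 °C) were eluted in LDS buffer for western validation or with FLAG peptide for trypsin digestion and Orbitrap LC-MS; hits needed ≥2 PSMs in both experiments, ranked by total PSMs.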

B1: Q13263 (protein, UniProt Q13263 1-835, looked up)
chain: MAASAAAASAAAASAASGSPGPGEGSAGGEKRSTAPSAAASASASAAASSPAGGGAEALELLEHCGVCRERLRPEREPRLLPCLHSACSACLGPAAPAAANSSGDGGAAGDGTVVDCPVCKQQCFSKDIVENYFMRDSGSKAATDAQDANQCCTSCEDNAPATSYCVECSEPLCETCVEAHQRVKYTKDHTVRSTGPAKSRDGERTVYCNVHKHEPLVLFCESCDTLTCRDCQLNAHKDHQYQFLEDAVRNQRKLLASLVKRLGDKHATLQKSTKEVRSSIRQVSDVQKRVQVDVKMAILQIMKELNKRGRVLVNDAQKVTEGQQERLERQHWTMTKIQKHQEHILRFASWALESDNNTALLLSKKLIYFQLHRALKMIVDPVEPHGEMKFQWDLNAWTKSAEAFGKIVAERPGTNSTGPAPMAPPRAPGPLSKQGSGSSQPMEVQEGYGFGSGDDPYSSAEPHVSGVKRSRSGEGEVSGLMRKVPRVSLERLDLDLTADSQPPVFKVFPGSTTEDYNLIVIERGAAAAATGQPGTAPAGTPGAPPLAGMAIVKEEETEAAIGAPPTATEGPETKPVLMALAEGPGAEGPRLASPSGSTSSGLEVVAPEGTSAPGGGPGTLDDSATICRVCQKPGDLVMCNQCEFCFHLDCHLPALQDVPGEEWSCSLCHVLPDLKEEDGSLSLDGADSTGVVAKLSPANQRKCERVLLALFCHEPCRPLHQLATDSTFSLDQPGGTLDLTLIRARLQEKLSPPYSSPQEFAQDVGRMFKQFNKLTEDKADVQSIIGLQRFFETRMNEAFGDTKFSAVLVEPPPMSLPGAGLSSQELSGGPGDGP
modifications: full-length
Turning to B1, the “4. longCTD + Dox + IFNG” value is 2 and the “SUM of PSMS” value amounted to 12. Besides, the “3. + IFNg + Dox longCTD” value (bait longCTD) was 1.

B2: Q8NC51 (protein, UniProt Q8NC51 1-408, looked up)
chain: MPGHLQEGFGCVVTNRFDQLFDDESDPFEVLKAAENKKKEAGGGGVGGPGAKSAAQAAAQTNSNAAGKQLRKESQKDRKNPLPPSVGVVDKKEETQPPVALKKEGIRRVGRRPDQQLQGEGKIIDRRPERRPPRERRFEKPLEEKGEGGEFSVDRPIIDRPIRGRGGLGRGRGGRGRGMGRGDGFDSRGKREFDRHSGSDRSSFSHYSGLKHEDKRGGSGSHNWGTVKDELTESPKYIQKQISYNYSDLDQSNVTEETPEGEEHHPVADTENKENEVEEVKEEGPKEMTLDEWKAIQNKDRAKVEFNIRKPNEGADGQWKKGFVLHKSKSEEAHAEDSVMDHHFRKPANDITSQLEINFGDLGRPGRGGRGGRGGRGRGGRPNRGSRTDKSSASAPDVDDPEAFPALA
modifications: full-length
On to B2, for which the “4. longCTD + Dox + IFNG” value was determined as 1 and the “SUM of PSMS” value was 6. In addition, under “bait longCTD”, the “3. + Dox longCTD” value turned out to be 2 and the “3. + IFNg + Dox longCTD” value is reported as 3.

B3: Q15393 (protein, UniProt Q15393 1-1217, looked up)
chain: MFLYNLTLQRATGISFAIHGNFSGTKQQEIVVSRGKILELLRPDPNTGKVHTLLTVEVFGVIRSLMAFRLTGGTKDYIVVGSDSGRIVILEYQPSKNMFEKIHQETFGKSGCRRIVPGQFLAVDPKGRAVMISAIEKQKLVYILNRDAAARLTISSPLEAHKANTLVYHVVGVDVGFENPMFACLEMDYEEADNDPTGEAAANTQQTLTFYELDLGLNHVVRKYSEPLEEHGNFLITVPGGSDGPSGVLICSENYITYKNFGDQPDIRCPIPRRRNDLDDPERGMIFVCSATHKTKSMFFFLAQTEQGDIFKITLETDEDMVTEIRLKYFDTVPVAAAMCVLKTGFLFVASEFGNHYLYQIAHLGDDDEEPEFSSAMPLEEGDTFFFQPRPLKNLVLVDELDSLSPILFCQIADLANEDTPQLYVACGRGPRSSLRVLRHGLEVSEMAVSELPGNPNAVWTVRRHIEDEFDAYIIVSFVNATLVLSIGETVEEVTDSGFLGTTPTLSCSLLGDDALVQVYPDGIRHIRADKRVNEWKTPGKKTIVKCAVNQRQVVIALTGGELVYFEMDPSGQLNEYTERKEMSADVVCMSLANVPPGEQRSRFLAVGLVDNTVRIISLDPSDCLQPLSMQALPAQPESLCIVEMGGTEKQDELGERGSIGFLYLNIGLQNGVLLRTVLDPVTGDLSDTRTRYLGSRPVKLFRVRMQGQEAVLAMSSRSWLSYSYQSRFHLTPLSYETLEFASGFASEQCPEGIVAISTNTLRILALEKLGAVFNQVAFPLQYTPRKFVIHPESNNLIIIETDHNAYTEATKAQRKQQMAEEMVEAAGEDERELAAEMAAAFLNENLPESIFGAPKAGNGQWASVIRVMNPIQGNTLDLVQLEQNEAAFSVAVCRFSNTGEDWYVLVGVAKDLILNPRSVAGGFVYTYKLVNNGEKLEFLHKTPVEEVPAAIAPFQGRVLIGVGKLLRVYDLGKKKLLRKCENKHIANYISGIQTIGHRVIVSDVQESFIWVRYKRNENQLIIFADDTYPRWVTTASLLDYDTVAGADKFGNICVVRLPPNTNDEVDEDPTGNKALWDRGLLNGASQKAEVIMNYHVGETVLSLQKTTLIPGGSESLVYTTLSGGIGILVPFTSHEDHDFFQHVEMHLRSEHPPLCGRDHLSFRSYYFPVKNVIDGDLCEQFNSMEPNKQKNVSEELDRTPPEVSKKLEDIRTRYAF
modifications: full-length
Regarding B3, the “4. longCTD + Dox + IFNG” value amounted to 1 and the “SUM of PSMS” value came to 15. In addition, where the note is “bait longCTD”, the “3. + Dox longCTD” value stood at 1 and the “3. + IFNg + Dox longCTD” value is 3.

B4: P13489 (protein, UniProt P13489 1-461, looked up)
chain: MSLDIQSLDIQCEELSDARWAELLPLLQQCQVVRLDDCGLTEARCKDISSALRVNPALAELNLRSNELGDVGVHCVLQGLQTPSCKIQKLSLQNCCLTGAGCGVLSSTLRTLPTLQELHLSDNLLGDAGLQLLCEGLLDPQCRLEKLQLEYCSLSAASCEPLASVLRAKPDFKELTVSNNDINEAGVRVLCQGLKDSPCQLEALKLESCGVTSDNCRDLCGIVASKASLRELALGSNKLGDVGMAELCPGLLHPSSRLRTLWIWECGITAKGCGDLCRVLRAKESLKELSLAGNELGDEGARLLCETLLEPGCQLESLWVKSCSFTAACCSHFSSVLAQNRFLLELQISNNRLEDAGVRELCQGLGQPGSVLRVLWLADCDVSDSSCSSLAATLLANHSLRELDLSNNCLGDAGILQLVESVRQPGCLLEQLVLYDIYWSEEMEDRLQALEKDKPSLRVIS
modifications: full-length
On to B4, for which the “4. longCTD + Dox + IFNG” value is 4 and the “SUM of PSMS” value is on record as 15. In addition, the “3. + IFNG longCTD” value (bait longCTD, experiment 3, IFNG only, no doxycycline (bait at background level)) amounted to 1.

B5: Q15233 (protein, UniProt Q15233 1-471, looked up)
chain: MQSNKTFNLEKQNHTPRKHHQHHHQQQHHQQQQQQPPPPPIPANGQQASSQNEGLTIDLKNFRKPGEKTFTQRSRLFVGNLPPDITEEEMRKLFEKYGKAGEVFIHKDKGFGFIRLETRTLAEIAKVELDNMPLRGKQLRVRFACHSASLTVRNLPQYVSNELLEEAFSVFGQVERAVVIVDDRGRPSGKGIVEFSGKPAARKALDRCSEGSFLLTTFPRPVTVEPMDQLDDEEGLPEKLVIKNQQFHKEREQPPRFAQPGSFEYEYAMRWKALIEMEKQQQDQVDRNIKEAREKLEMEMEAARHEHQVMLMRQDLMRRQEELRRMEELHNQEVQKRKQLELRQEEERRRREEEMRRQQEEMMRRQQEGFKGTFPDAREQEIRMGQMAMGGAMGINNRGAMPPAPVPAGTPAPPGPATMMPDGTLGLTPPTTERFGQAATMEGIGAIGGTPPAFNRAAPGAEFAPNKRRRY
modifications: full-length
Take B5: the “SUM of PSMS” value was found to be 10. Where the note is “bait longCTD”, the “3. + Dox longCTD” value worked out at 1 and the “3. + IFNg + Dox longCTD” value is recorded as 8.

B6: P55209 (protein, UniProt P55209 1-391, looked up)
chain: MADIDNKEQSELDQDLDDVEEVEEEETGEETKLKARQLTVQMMQNPQILAALQERLDGLVETPTGYIESLPRVVKRRVNALKNLQVKCAQIEAKFYEEVHDLERKYAVLYQPLFDKRFEIINAIYEPTEEECEWKPDEEDEISEELKEKAKIEDEKKDEEKEDPKGIPEFWLTVFKNVDLLSDMVQEHDEPILKHLKDIKVKFSDAGQPMSFVLEFHFEPNEYFTNEVLTKTYRMRSEPDDSDPFSFDGPEIMGCTGCQIDWKKGKNVTLKTIKKKQKHKGRGTVRTVTKTVSNDSFFNFFAPPEVPESGDLDDDAEAILAADFEIGHFLRERIIPRSVLYFTGEAIEDDDDDYDEEGEEADEEGEEEGDEENDPDYDPKKDQNPAECKQQ
modifications: full-length
As to B6, the “4. longCTD + Dox + IFNG” value came out at 3 and the “SUM of PSMS” value is given as 10. For the same molecule, the “3. + IFNg + Dox longCTD” value (bait longCTD) was found to be 5.

B7: Q63ZY3 (protein, UniProt Q63ZY3 1-851, looked up)
chain: MAQVLHVPAPFPGTPGPASPPAFPAKDPDPPYSVETPYGYRLDLDFLKYVDDIEKGHTLRRVAVQRRPRLSSLPRGPGSWWTSTESLCSNASGDSRHSAYSYCGRGFYPQYGALETRGGFNPRVERTLLDARRRLEDQAATPTGLGSLTPSAAGSTASLVGVGLPPPTPRSSGLSTPVPPSAGHLAHVREQMAGALRKLRQLEEQVKLIPVLQVKLSVLQEEKRQLTVQLKSQKFLGHPTAGRGRSELCLDLPDPPEDPVALETRSVGTWVRERDLGMPDGEAALAAKVAVLETQLKKALQELQAAQARQADPQPQAWPPPDSPVRVDTVRVVEGPREVEVVASTAAGAPAQRAQSLEPYGTGLRALAMPGRPESPPVFRSQEVVETMCPVPAAATSNVHMVKKISITERSCDGAAGLPEVPAESSSSPPGSEVASLTQPEKSTGRVPTQEPTHREPTRQAASQESEEAGGTGGPPAGVRSIMKRKEEVADPTAHRRSLQFVGVNGGYESSSEDSSTAENISDNDSTENEAPEPRERVPSVAEAPQLRPAGTAAAKTSRQECQLSRESQHIPTAEGASGSNTEEEIRMELSPDLISACLALEKYLDNPNALTERELKVAYTTVLQEWLRLACRSDAHPELVRRHLVTFRAMSARLLDYVVNIADSNGNTALHYSVSHANFPVVQQLLDSGVCKVDKQNRAGYSPIMLTALATLKTQDDIETVLQLFRLGNINAKASQAGQTALMLAVSHGRVDVVKALLACEADVNVQDDDGSTALMCACEHGHKEIAGLLLAVPSCDISLTDRDGSTALMVALDAGQSEIASMLYSRMNIKCSFAPMSDDESPTSSSAEE
modifications: full-length
As for B7, the “4. longCTD + Dox + IFNG” value came to 4 and the “SUM of PSMS” value was found to be 11. Moreover, where the note is “bait longCTD”, the “3. + Dox longCTD” value came out at 3 and the “3. + IFNg + Dox longCTD” value is 3.

B8: CDK4 (protein)
chain: ATSRYEPVAEIGVGAYGTVYKARDPHSGHFVALKSVRVPNGGGGGGGLPISTVREVALLRRLEAFEHPNVVRLMDVCATSRTDREIKVTLVFEHVDQDLRTYLDKAPPPGLPAETIKDLMRQFLRGLDFLHANCIVHRDLKPENILVTSGGTVKLADFGLARIYSYQMALTPVVVTLWYRAPEVLLQSTYATPVDMWSVGCIFAEMFRRKPLFCGNSEADQLGKIFDLIGLPPEDDWPRDVSLPRGAFPPRGPRPVQSVVPEMEESGAQLLLEMLTFNPHKRISAFRALQHSYLHKDEGNPE
On to B8, for which the “4. mL1dL2 + Dox + IFNG” value (LC-MS value per protein co-immunoprecipitated with DUX4-CTD construct mL1dL2 in MB135 myoblasts, + Dox + IFNG, kind of count not given) was 3.
